Test results reported in patent US20150231232.

Target: human IL-8 (UniProt P10145)
Sequence (P10145 28-99): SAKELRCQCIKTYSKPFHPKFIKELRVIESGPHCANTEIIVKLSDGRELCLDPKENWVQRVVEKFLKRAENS

With “SpyCEP expressed in the lumen of E. coli OMVs (OMVs containing SpyCEP)” the “hydrolysis of IL-8 (18% SDS-PAGE with silver staining)” value was “IL-8 was almost completely cleaved after 2 hours incubation with 30 µg OMVs containing SpyCEP”.
